Each block holds one binder with its values, some of them ahead of it.
B3: B7-DCIg (Fc fusion, Mus musculus, UniProt Q9WUL5 20-219, looked up)
fusion protein: LFTVTAPKEVYTVDVGSSVSLECDFDRRECTELEGIRASLQKVENDTSLQSERATLLEEQLPLGKALFHIPSVQVRDSGQYRCLVICGAAWDYKYLTVKVKASYMRIDTRILEVPGTGEVQLTCQARGYPLAEVSWQNVSVPANTSHIRTPEGLYQVTSVLRLKPQPSRNFSCMFWNAHMKELTSAIIDPLSRMEPKVPR
notes: Ig fusion protein purchased from R&D systems; also called mouse B7-DCIg fusion protein
B5: ICOS (receptor, Mus musculus, UniProt Q9WVS0 21-200, looked up)
membrane protein: EINGSADHRMFSFHNGGVQISCKYPETVQQLKMRLFREREVLCELTKTKGSGNAVSIKNPMLCLYHLSNNSVSFFLNNPDSSQGSYYFCSLSIFDPPPFQERNLSGGYLHIYESQLCCQLKLWLPVGCAAFVVVLLFGCILIIWFSKKKYGSSVHDPNSEYMFMAAVNTNKKSRLAGVTS

Legend:
PD-1 = molecular target: T1, PD-1 (Mus musculus, UniProt Q02242); assay: CDS well image, 293T cells transfected with the mouse gene, stained with the mouse fusion protein
T1 sequence (membrane protein, looked up): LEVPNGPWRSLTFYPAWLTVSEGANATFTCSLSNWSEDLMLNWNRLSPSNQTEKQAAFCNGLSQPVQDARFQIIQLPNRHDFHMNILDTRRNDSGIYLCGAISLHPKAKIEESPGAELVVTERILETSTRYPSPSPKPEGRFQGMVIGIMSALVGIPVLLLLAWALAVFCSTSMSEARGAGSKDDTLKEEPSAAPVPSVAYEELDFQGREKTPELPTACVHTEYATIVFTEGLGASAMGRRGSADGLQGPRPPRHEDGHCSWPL

[1] = molecular target: T2, mouse B7-H2, full length, expressed on 293T cells (mouse, UniProt Q9JHJ8 44-322); assay: as above
T2 construct: whole, on cells
T2 sequence (looked up): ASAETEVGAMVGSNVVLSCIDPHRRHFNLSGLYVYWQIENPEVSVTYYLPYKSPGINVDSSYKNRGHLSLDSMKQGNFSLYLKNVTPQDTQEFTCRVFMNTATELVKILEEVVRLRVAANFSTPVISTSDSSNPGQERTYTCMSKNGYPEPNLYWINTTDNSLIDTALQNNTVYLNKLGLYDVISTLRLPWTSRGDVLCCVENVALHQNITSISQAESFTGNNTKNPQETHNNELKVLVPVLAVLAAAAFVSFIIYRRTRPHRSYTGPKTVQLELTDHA

B7-H1 = B7-H1 (Mus musculus, UniProt Q9EP73); assay: as above
Chain of B7-H1 (Q9EP73 19-290 limits assumed): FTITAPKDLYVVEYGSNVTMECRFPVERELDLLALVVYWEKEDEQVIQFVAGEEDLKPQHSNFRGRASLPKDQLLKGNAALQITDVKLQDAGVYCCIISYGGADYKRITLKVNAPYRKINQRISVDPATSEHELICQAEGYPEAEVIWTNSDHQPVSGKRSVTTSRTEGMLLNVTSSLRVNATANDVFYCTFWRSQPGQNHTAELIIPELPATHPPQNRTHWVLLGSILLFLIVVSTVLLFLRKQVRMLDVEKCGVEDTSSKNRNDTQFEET

[2] = molecular target: T3, human B7-H1 expressed on 293T cells (human, UniProt Q9NZQ7 19-290); assay: CDS well image, 293T cells transfected with the human gene, stained with the human fusion protein
T3 construct: whole, on cells
T3 sequence (Q9NZQ7 19-290): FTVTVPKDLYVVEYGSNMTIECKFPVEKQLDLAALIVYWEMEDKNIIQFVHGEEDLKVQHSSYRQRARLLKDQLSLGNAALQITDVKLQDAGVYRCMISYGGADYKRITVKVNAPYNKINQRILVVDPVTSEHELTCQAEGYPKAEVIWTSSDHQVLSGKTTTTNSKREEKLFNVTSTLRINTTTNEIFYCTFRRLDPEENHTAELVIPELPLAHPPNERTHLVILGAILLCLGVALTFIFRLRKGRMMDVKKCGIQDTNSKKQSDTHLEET

[3] = molecular target: T4, human B7-1 (CD80) expressed on 293T cells (human, UniProt P33681 35-288); assay: as above
T4 construct: whole, on cells
T4 sequence (looked up): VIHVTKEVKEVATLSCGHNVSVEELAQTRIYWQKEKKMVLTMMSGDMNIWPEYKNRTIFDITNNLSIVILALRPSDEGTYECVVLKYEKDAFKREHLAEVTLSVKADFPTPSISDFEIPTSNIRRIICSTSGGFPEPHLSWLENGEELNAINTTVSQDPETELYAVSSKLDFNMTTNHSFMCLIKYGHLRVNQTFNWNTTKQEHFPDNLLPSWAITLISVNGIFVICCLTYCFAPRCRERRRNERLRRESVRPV

[4] = molecular target: T5, human B7-H2, full length, expressed on cells (B7-H2+293T cells) (human, UniProt O75144 19-302); assay: as above
T5 construct: This id also stands for endogenous B7-H2 on monocyte-derived dendritic cells in the functional rows; also called ICOSL; ICOSLG
T5 sequence: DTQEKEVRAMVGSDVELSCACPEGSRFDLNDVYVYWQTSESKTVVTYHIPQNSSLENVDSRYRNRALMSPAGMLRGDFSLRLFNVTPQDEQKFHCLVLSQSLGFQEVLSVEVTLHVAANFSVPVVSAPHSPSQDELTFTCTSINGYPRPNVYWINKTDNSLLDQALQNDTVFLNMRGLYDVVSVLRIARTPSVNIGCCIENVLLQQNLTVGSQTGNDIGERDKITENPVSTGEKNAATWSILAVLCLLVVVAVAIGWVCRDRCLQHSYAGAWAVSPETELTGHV

[5] = molecular target: T6, human B7-DC expressed on 293T cells (human, UniProt Q9BQ51 20-273); assay: as above
T6 construct: whole, on cells
T6 sequence (looked up): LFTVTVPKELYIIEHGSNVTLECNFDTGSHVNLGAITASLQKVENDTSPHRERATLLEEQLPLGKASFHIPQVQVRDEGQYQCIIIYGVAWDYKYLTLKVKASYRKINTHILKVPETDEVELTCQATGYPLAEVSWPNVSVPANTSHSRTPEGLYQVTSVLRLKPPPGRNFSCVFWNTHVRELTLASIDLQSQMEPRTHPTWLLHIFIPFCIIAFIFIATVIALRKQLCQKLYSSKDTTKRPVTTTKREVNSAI

[6] = molecular target: T7, human B7-2 (CD86, B70) expressed on 293T cells (human, UniProt P42081 24-329); assay: as above
T7 construct: whole, on cells
T7 sequence (looked up): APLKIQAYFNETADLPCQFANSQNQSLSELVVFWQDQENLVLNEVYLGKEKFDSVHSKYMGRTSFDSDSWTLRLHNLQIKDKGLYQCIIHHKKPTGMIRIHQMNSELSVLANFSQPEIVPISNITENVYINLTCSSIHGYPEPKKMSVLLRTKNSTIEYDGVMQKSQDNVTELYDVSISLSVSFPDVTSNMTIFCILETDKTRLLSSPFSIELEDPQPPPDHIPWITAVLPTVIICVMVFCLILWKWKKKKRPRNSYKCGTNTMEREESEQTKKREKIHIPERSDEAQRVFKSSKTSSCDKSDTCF

B7-DC = molecular target: T8, B7-DC (Mus musculus, UniProt Q9WUL5); assay: CDS well image, 293T cells transfected with the mouse gene, stained with the mouse fusion protein
T8 sequence (membrane protein, looked up): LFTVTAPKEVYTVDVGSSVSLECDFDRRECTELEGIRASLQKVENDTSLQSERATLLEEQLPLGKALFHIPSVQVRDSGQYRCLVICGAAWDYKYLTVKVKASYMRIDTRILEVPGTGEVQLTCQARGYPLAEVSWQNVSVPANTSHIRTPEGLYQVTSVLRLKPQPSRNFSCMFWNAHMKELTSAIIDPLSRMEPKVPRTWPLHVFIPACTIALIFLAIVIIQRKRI

CTLA-4 = CTLA-4 (Mus musculus, UniProt P09793); assay: as above
ICOS = molecular target: B5; assay: as above
CD28 = molecular target: T9, CD28 (Mus musculus, UniProt P31041); assay: as above
T9 sequence (membrane protein, looked up): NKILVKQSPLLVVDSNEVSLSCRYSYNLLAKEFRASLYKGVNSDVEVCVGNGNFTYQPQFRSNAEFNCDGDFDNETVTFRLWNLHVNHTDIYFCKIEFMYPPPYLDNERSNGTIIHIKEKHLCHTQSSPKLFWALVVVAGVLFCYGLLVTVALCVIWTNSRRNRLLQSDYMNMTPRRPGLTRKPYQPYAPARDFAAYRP

B7-H1Ig = molecular target: T10, B7-H1Ig (Mus musculus, UniProt Q9EP73); assay: as above
T10 construct: Ig fusion protein purchased from R&D systems; also called mouse B7-H1Ig fusion protein
T10 sequence (Q9EP73 19-238 limits assumed): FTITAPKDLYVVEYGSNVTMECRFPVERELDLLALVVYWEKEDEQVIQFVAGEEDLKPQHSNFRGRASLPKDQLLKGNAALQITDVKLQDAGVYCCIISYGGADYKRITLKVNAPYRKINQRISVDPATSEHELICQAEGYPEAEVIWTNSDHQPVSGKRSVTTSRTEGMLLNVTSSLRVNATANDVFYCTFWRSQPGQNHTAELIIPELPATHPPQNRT

B7-DCIg = molecular target: B3; assay: as above

B1: B7-H2Ig (Fc fusion, Mus musculus, UniProt Q9JHJ8 47-279, looked up)
fusion protein: ETEVGAMVGSNVVLSCIDPHRRHFNLSGLYVYWQIENPEVSVTYYLPYKSPGINVDSSYKNRGHLSLDSMKQGNFSLYLKNVTPQDTQEFTCRVFMNTATELVKILEEVVRLRVAANFSTPVISTSDSSNPGQERTYTCMSKNGYPEPNLYWINTTDNSLIDTALQNNTVYLNKLGLYDVISTLRLPWTSRGDVLCCVENVALHQNITSISQAESFTGNNTKNPQETHNNELK
notes: Ig fusion protein purchased from R&D systems; also called mouse B7-H2Ig fusion protein
binding result (PD-1): no binding | binding result [1]: no binding | binding result (B7-H1): no binding

B2: human B7-H2Ig fusion protein (Fc fusion)
chain: DTQEKEVRAMVGSDVELSCACPEGSRFDLNDVYVYWQTSESKTVVTYHIPQNSSLENVDSRYRNRALMSPAGMLRGDFSLRLFNVTPQDEQKFHCLVLSQSLGFQEVLSVEVTLHVAANFSVPVVSAPHSPSQDELTFTCTSINGYPRPNVYWINKTDNSLLDQALQNDTVFLNMRGLYDVVSVLRIARTPSVNIGCCIENVLLQQNLTVGSQTGNDIGERDKITENPVSTGEKNAATWS
notes: Ig (Fc) part not given
binding result [2]: no binding | binding result [3]: no binding | binding result [4]: no binding | binding result [5]: no binding | binding result [6]: no binding

Binder: B3
binding result (B7-DC): no binding | binding result (PD-1): binds | binding result [1]: no binding | binding result (B7-H1): no binding

Binder: B5
binding result (B7-H1Ig): no binding | binding result (B7-DCIg): no binding

B6: ICOSIg (Fc fusion, Mus musculus, UniProt Q9WVS0 21-144, looked up)
fusion protein: EINGSADHRMFSFHNGGVQISCKYPETVQQLKMRLFREREVLCELTKTKGSGNAVSIKNPMLCLYHLSNNSVSFFLNNPDSSQGSYYFCSLSIFDPPPFQERNLSGGYLHIYESQLCCQLKLWL
notes: Ig fusion protein purchased from R&D systems; also called mouse ICOSIg fusion protein
binding result (B7-DC): no binding | binding result (CTLA-4): no binding | binding result (PD-1): no binding | binding result [1]: binds | binding result (ICOS): no binding | binding result (CD28): no binding | binding result (B7-H1): no binding

Now from value to binder:

binding result (B7-DC): binds | binding result (CTLA-4): no binding | binding result (PD-1): no binding | binding result [1]: no binding | binding result (ICOS): no binding | binding result (CD28): no binding | binding result (B7-H1): binds
B4: PD-1Ig (Fc fusion, Mus musculus, UniProt Q02242 25-167, looked up)
fusion protein: LEVPNGPWRSLTFYPAWLTVSEGANATFTCSLSNWSEDLMLNWNRLSPSNQTEKQAAFCNGLSQPVQDARFQIIQLPNRHDFHMNILDTRRNDSGIYLCGAISLHPKAKIEESPGAELVVTERILETSTRYPSPSPKPEGRFQ
notes: Ig fusion protein purchased from R&D systems; also called mouse PD-1Ig fusion protein

binding result [3]: no binding | binding result [4]: no binding | binding result [5]: no binding | binding result [6]: no binding
B7: human B7-1Ig fusion protein (Fc fusion, UniProt P33681 35-242, looked up)
chain: VIHVTKEVKEVATLSCGHNVSVEELAQTRIYWQKEKKMVLTMMSGDMNIWPEYKNRTIFDITNNLSIVILALRPSDEGTYECVVLKYEKDAFKREHLAEVTLSVKADFPTPSISDFEIPTSNIRRIICSTSGGFPEPHLSWLENGEELNAINTTVSQDPETELYAVSSKLDFNMTTNHSFMCLIKYGHLRVNQTFNWNTTKQEHFPDN
notes: Bought from R&D Systems; Ig (Fc) part not given

— patent US20120219559A1 (Johns Hopkins, published 2012)
